Measurements reported in patent US5876949, “Antibodies specific for fragile X related proteins and method of using the same” (The Trustees of the University of Pennsylvania, dated 1999).

Biological target: GAL4(1-147)-FMR1, FMR1 fused to the DNA binding domain of the yeast transcription factor GAL4 (plasmid … (yeast; human, UniProt P04386)
Assay: yeast two-hybrid, HIS3 and LacZ reporters in HF7C

binding result: no binding
B1: GAL4 activation domain alone (empty vector pGAD424) (other)
chain: ANFNQSGNIADSSLSFTFTNSSNGPNLITTQTNSQALSQPIASSNVHDNFMNNEITASKIDDGNNSKPLSPGWTDQTAYNAFGITTGMFNTTTMDDVYNYLFDDEDTPPNPKKE
